Consider four molecules from patent US20250282887A1 (Amgen, published 2025).

For one assay, the target named is T1, human MAGEB4 (human, UniProt O15481 1-346).
T1 construct: whole, on cells
T1 sequence (looked up): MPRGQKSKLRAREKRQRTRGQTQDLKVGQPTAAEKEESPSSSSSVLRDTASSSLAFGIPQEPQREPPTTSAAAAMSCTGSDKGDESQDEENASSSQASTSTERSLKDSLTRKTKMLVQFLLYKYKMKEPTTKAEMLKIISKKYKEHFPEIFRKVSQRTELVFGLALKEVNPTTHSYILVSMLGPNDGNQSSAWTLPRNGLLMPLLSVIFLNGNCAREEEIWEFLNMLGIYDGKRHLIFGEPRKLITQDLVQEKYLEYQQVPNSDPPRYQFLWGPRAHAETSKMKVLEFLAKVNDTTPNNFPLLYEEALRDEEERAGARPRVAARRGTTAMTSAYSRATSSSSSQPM
The assay is described as follows: IHC, FFPE CHO cells transfected with human MAGEB4. From the text: Negative control cells included parental Chinese hamster ovary (CHO) cells, CHO cells stably transfected with mCherry Vector Control (minus Myc/DDK tags), CHO cells stably transfected with mCherry-human DCAF4L2 (plus Myc/DDK tags). The cross-reactivity control cells included CHO cells transfected with mCherry Vector Control (plus Myc/DDK tags) with one of the human MAGE-B or MAGE-A family members (MAGEA1, MAGEA2, MAGEA3, MAGEA4, MAGEA5, MAGEA6, MAGEA8, MAGEA9, MAGEA11, MAGEA12, MAGEB1, MAGEB3, MAGEB4, MAGEB5, MAGEB6, MAGEB10, MAGEB16, MAGEB17, MAGEB18). Positive control cell lines included CHO cells transfected with mCherry Vector (plus Myc/DDK tags) with human MAGE-B2 or CHO cells transfected with mCherry Vector (open reading frame (ORF); minus Myc/DDK tags) with human MAGEB2, and thirteen human cancer cell lines with known endogenous RNA expression level of MAGEB2 (U266B1, T98G, KMM-1, U20S, CFPAC-1, SCaBER, UACC-257, CFPAC-1, VMRC-LCD, NCI-H1703, UM-UC-3, NCI-H1395, NCIH82).
(§1) FFPE samples were sectioned at 4 μm and mounted on positive charged glass slides. After mounting, paraffin sections were air-dried at room temperature. FFPE TMA samples were received as freshly sectioned and mounted on glass slides. The fully automated IHC assay was performed on a Discovery Ultra Stainer (Ventana Medical Systems, Tucson, AZ) using Ventana Anti-Rabbit HQ (cat #760-4815), Ventana Anti-HQ HRP (cat #760-4820), and Ventana Antibody Diluent with Casein (cat #760-219) (Ventana Medical Systems, Tucson, AZ). The slides were baked on the Discovery Ultra Stainer at 60° C. for 8 minutes, de-paraffinized with Ventana Discovery wash (cat #950-510) for 3 cycles (8 minutes each) at 69° C., and underwent cell conditioning (target retrieval) at 95° C. for 16 minutes (for cell arrays) or 32 minutes (tissues or TMAs) in CC1 buffer (cat #950-500). Following this, slides were incubated with Background Sniper (cat #BS966M, Biocare Medical, Pacheco, CA) in a Ventana Option Prep kit (cat #771-751) for 28 minutes, incubated with CM inhibitor (a part of the Ventana DAB kit cat #760-159) for 12 minutes, and incubated for 1 h at RT with MAGE-B2 antibody diluted with Ventana diluent with Casein in a Ventana Prep kit (cat #770-001) (working concentration at 0.1 μg/ml for cell pellet, or 1-5 ug/ml for tissues) or with a matched concentration of isotype control Rabbit IgG1 antibody.

The target of the next assay is T2, human MAGEB17 (human, UniProt A8MXT2 1-336).
T2 construct: whole, on cells; FFPE cell pellets; also called MAGE-17
T2 sequence (looked up): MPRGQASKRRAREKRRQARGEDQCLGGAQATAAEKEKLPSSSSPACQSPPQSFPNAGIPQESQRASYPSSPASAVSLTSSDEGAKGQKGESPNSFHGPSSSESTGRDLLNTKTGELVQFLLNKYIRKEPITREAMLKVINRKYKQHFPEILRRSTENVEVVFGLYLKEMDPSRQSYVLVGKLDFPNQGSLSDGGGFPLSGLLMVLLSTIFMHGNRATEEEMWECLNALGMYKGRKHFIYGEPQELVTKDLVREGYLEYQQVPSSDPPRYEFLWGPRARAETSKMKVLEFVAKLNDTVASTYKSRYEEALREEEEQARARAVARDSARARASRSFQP
The assay is described as follows: IHC, FFPE CHO cells transfected with human MAGEB17. As for the experimental part: as §1, with “antibody. Following this, slides were incubated with the Ventana Anti-Rabbit HQ (cat #760-4815) for 28 minutes at RT, Ventana Anti-HQ HRP (cat #760-4820) for 28 minutes at RT, and signals detected with Ventana DAB chromogen kit (cat #760-159) for 5 minutes at RT. Slides were counterstained with Ventana Hematoxylin II (cat #5266726001) for 8 minutes and Ventana Bluing reagent (cat #526676900) for 4 minutes. Slides were coverslipped and digitized using an Aperio AT2 scanner (Leica Biosystems Inc, Buffalo Grove, IL).” for “antibody.”

B1: 1C3 (antibody, V domains shown)
VH: QSLEESGGGLVQPEGSLTLTCTAFGVTLTNYYICWVRQAPGKGLEWVGCIDNANGRTYYASWAKGRFTISKTSSTTGTLQMTSLTAADTATYFCARSLATPLWGPGTLVTVSS
VL: DIVMTQTPSSVEAAVGGTVTIKCQASQNISSYLAWYQQKPGQPPKLLIYRASTLASGVPSRFKGSGSGTQFTLTISDLECADAATYYCQSYDDSRSSNFFYAFGGGTEVVVKG
notes: also called MAGE-B2 (IC3); anti-MAGEB2 antibody 1C3
For the molecule B1, the binding result in the assay with human MAGEB4 and with human MAGEB17 was “no binding (tested: 0.1 µg/ml)” each time.

B2: 4G17 (antibody, IgG1, V domains shown)
VH: QSLEESGGGLVQPEGSLTLTCTASGVTLSNYYICWVRQAPGKGLEWIGCIDNVNGRTYYASWAKGRFTISKTSSTTGTLQMTSLTAADTATYFCARSLATPLWGPGTLVTVSS
VL: DIVMTQTPASVEAAVGGTVTIKCQASQNIDSYLAWYQQKPGQPPKLLIYRASTLASGVPSRFKGSGSGTEFTLTISDLECADAATYYCQSYDDSRSSSFFYGFGGGTEVVVK
notes: Rabbit monoclonal IgG1; Tested as supernatant and as small batch purified antibody; also called MAGE-B2 (4G17); anti-MAGEB2 antibody 4G17
Take B2: the binding result in the assay with human MAGEB4 and in the assay with human MAGEB17 was “no binding (tested: 0.1 µg/ml)” throughout.

B3: 1J15 (antibody, IgG1, V domains shown)
VH: QSLEESGGGLVQPEGSLTLTCTAFGFTLNNYYICWVRQAPGKGLEWIACIDNANGRTYYASWAKGRFTISKTSSTTVTLQMTSLTAADTATYFCARSLSTPLWGPGTLVTVSS
VL: DIVMTQTPASVEAAVGGTVTIKCQASQSISSYLSWYQQKPGQPPKLLIYRASTLASGVPSRFRGSGSGTQFTLTISDLECADAATYYCQSYDDSSDNNFFYGFGGGTEVVVR
notes: Rabbit monoclonal IgG1; Tested as supernatant and as small batch purified antibody; also called MAGE-B2 (IJ15); anti-MAGEB2 antibody 1J15
On to B3, for which the binding result with human MAGEB4 and in the assay with human MAGEB17 was “no binding (tested: 0.1 µg/ml)” throughout.

B4: 1I14 (antibody, V domains shown)
VH: QSVEESGGRLVTPGTPLTLTCTISGFSLSSYAMSWVRQAPGKGLEWIGSIGGGGSAVYASWAKGRFTISKTSTTVDLRITSPTTEDTAMYFCGRGFYSIDLWGPGTLVTVSS
VL: DVVMTQTPASVEATVGGTVTIKCQSSQSVYDNNALAWYQQNAGQRPRLLIYGASTLASGVPSRFSASGSGTEFTLTISDLECADAATYYCQCTYYVSSYQNDFGGGTEVVVKG
notes: also called MAGE-B2 (1i14)
In the case of B4, the binding result with human MAGEB4 and with human MAGEB17 was “no binding (tested: 0.1 µg/ml)” throughout.
